The record followed here is patent US20250186614A1, “COMPACT DRUG RESPONSIVE DOMAINS FOR REGULATION OF FUNCTION/ABUNDANCE AND DELIVERY OF POLYPEPTIDE PAYLOADS” (OBSIDIAN THERAPEUTICS, INC., priority 2022, published 2025).

Numbering of substitutions follows the chain as printed. Numbers in names are those of the source.

For the experiment, the system named is Jurkat cells. Put plainly: Tacrolimus dose response of FKBP13-AcGFP-mCherry constructs stably transduced into Jurkat cells, GFP MFI by flow cytometry. The class given is cell-based. Also noted: Basal: unit not given here. Particulars: for DRD function after abrogating the disulfide bonds: FIG. 4; for basal AcGFP expression: absence of tacrolimus. How it is done:
The regulation of AcGFP, from FKBP13-AcGFP-mCherry constructs, in Jurkat cells, was also studied. Jurkat Clone E6-1 cells were cultured in standard media (RPMI+GlutaMAX Supplement (Life Technologies, Carlsbad, CA Cat #61870127), Fetal Bovine Serum (FBS) (Life Technologies Cat #10-082-147)). Jurkat cells were transduced with lentivirus produced with each of FKBP-039, FKBP-040, FKBP-041, FKBP-042, FKBP-043, FKBP-044, or FKBP-045 constructs. Jurkat cells were transduced until they were 10-25% positive, as determined on day 5 post-transduction, by using mCherry as a transduction marker. […] The Geometric Mean Fluorescent Intensity (MFI) of GFP expression in mCherry+ cells was plotted and dose response curve fits were performed using Prism Software (San Diego, CA).
FKBP-091 was used as a comparative construct.
FIGS. 22-38 show the results of characterization of FKBP-160-292. […] FKBP-091 and FKBP-117 was used as a comparative control for FKBP-160-FKBP-255. FKBP-195 was used as a comparative control for FKBP-256-FKBP-275. FKBP-117, FPBP-195 and FKBP-251 were used as a comparative control for FKBP-276-FKBP-292.
FKBP mutants were cloned in a manner to make a fusion protein with AcGFP in order to assess FKBP mutant regulation by using AcGFP expression as a readout. […] Further iterative FKBP mutants (FKBP-256-FKBP-292) were constructed from these initial combinatorial mutants to see if we could further improve FKBP DRD properties.

Setting [1] is: tacrolimus dose response, Jurkat cells stably transduced (FIG. 4), Table 4.
Setting [2] is: tacrolimus, Jurkat cells, Table 13.

B1: FKBP-062: FKBP13 DRD Q72R, Q84E, A117H, M54A, [−]disulfide; SEQ ID NO: 18 (protein)
chain: HSPIKSRKGDVLHAHYTGKLEDGTEFDSSLPRNQPFVFSLGTGEVIKGWDQGLLGMSEGEKRKLVIPSELGYGERGHPPKIPGGATLVFEVELLKIER
modifications: disulfide removed; Description of sequence: FKBP13-AcGFP-mCherry Fusion; Construct Name: FKBP-062; FKBP13 DRD in Construct : FKBP13 (mutated to match FKBP12 active site - Q72R Q84E A117H) (DRD - M54A [-]disulfide)
On to B1, for which the “DRD function after abrogating the disulfide bonds” value (tacrolimus dose response) is “did not create a significant difference in DRD function”. The molecule further yielded a Fold Change under setting [1] of 10.4.

B2: FKBP-055: FKBP13 DRD Q72R, Q84E, A117H, F78V; SEQ ID NO: 11 (protein)
chain: B1 chain with S2C, A14M, F38V, S57C
modifications: Description of sequence: FKBP13-AcGFP-mCherry Fusion; Construct Name: FKBP-055; FKBP13 DRD in Construct : FKBP13 mutated to match FKBP12 active site - (Q72R Q84E A117H) (DRD - F78V)
Under setting [1], B2 yielded a Fold Change of 9.0.

B3: FKBP-061: FKBP13 DRD Q72R, Q84E, A117H, L133A; SEQ ID NO: 17 (protein)
chain: B1 chain with S2C, A14M, S57C, L93A
modifications: Description of sequence: FKBP13-AcGFP-mCherry Fusion; Construct Name: FKBP-061; FKBP13 DRD in Construct : FKBP13 (mutated to match FKBP12 active site - Q72R Q84E A117H) (DRD - L133A)
As for B3, the Fold Change under setting [1] was found to be 16.6.

B4: FKBP-064: FKBP13 DRD Q72R, Q84E, A117H, R102L; SEQ ID NO: 20 (protein)
chain: B1 chain with S2C, A14M, S57C, R62L
modifications: Description of sequence: FKBP13-AcGFP-mCherry Fusion; Construct Name: FKBP-064; FKBP13 DRD in Construct : FKBP13 (mutated to match FKBP12 active site - Q72R Q84E A117H) (DRD - R102L)
B4: the Fold Change under setting [1] is recorded as 21.6.

B5: FKBP-272: constructed from FKBP-195 by changing the K135Y mutation to K135L (protein)
chain: B1 chain with S2C, A14M, V45R, S57C, H77W, K95L
modifications: Description of sequence: Construct Name: FKBP-272; Mutation(s): Q72R Q84E A117W V85R DRD K135L
notes: constructed from FKBP-195 by changing the K135Y mutation to K135L
As for B5, the “basal AcGFP expression” value was “lower basal AcGFP expression”. Where the note is “FIG. 39”, this molecule yielded a Basal of 71.5, an FC of 85 and a Peak of 5857. For the same molecule, where the note is “FIG. 50”, the Basal amounted to 55.6, the FC came to 105.86 and the “At 10 uM” value stood at 5886. Further, the “Fold Change” value under setting [2] amounted to 105.86.

B6: FKBP-060: FKBP13 DRD Q72R, Q84E, A117H, L104A; SEQ ID NO: 16 (protein)
chain: B1 chain with S2C, A14M, S57C, L64A
modifications: Description of sequence: FKBP13-AcGFP-mCherry Fusion; Construct Name: FKBP-060; FKBP13 DRD in Construct : FKBP13 (mutated to match FKBP12 active site - Q72R Q84E A117H) (DRD - L104A)
As to B6, under setting [1], the Fold Change came out at 2.7.

B7: FKBP-053: FKBP13 DRD Q72R, Q84E, A117H, D90G, F66H; SEQ ID NO: 9 (protein)
chain: B1 chain with S2C, A14M, F26H, D50G, S57C
modifications: Description of sequence: FKBP13-AcGFP-mCherry Fusion; Construct Name: FKBP-053; FKBP13 DRD in Construct : FKBP13 (mutated to match FKBP12 active site - Q72R Q84E A117H) (DRD - D90G F66H)
Under setting [1], B7 came in with a Fold Change of 1.0.

B8: FKBP-056: FKBP13 DRD Q72R, Q84E, A117H, F129K; SEQ ID NO: 12 (protein)
chain: B1 chain with S2C, A14M, S57C, F89K
modifications: Description of sequence: FKBP13-AcGFP-mCherry Fusion; Construct Name: FKBP-056; FKBP13 DRD in Construct : FKBP13 (mutated to match FKBP12 active site - Q72R Q84E A117H) (DRD - F129K)
Under setting [1], B8 gave a Fold Change of 1.0.

B9: FKBP-057: FKBP13 DRD Q72R, Q84E, A117H, I106A; SEQ ID NO: 13 (protein)
chain: B1 chain with S2C, A14M, S57C, I66A
modifications: Description of sequence: FKBP13-AcGFP-mCherry Fusion; Construct Name: FKBP-057; FKBP13 DRD in Construct : FKBP13 (mutated to match FKBP12 active site - Q72R Q84E A117H) (DRD - I106A)
For B9, under setting [1], the Fold Change turned out to be 2.7.

B10: FKBP-059: FKBP13 DRD Q72R, Q84E, A117H, L93A; SEQ ID NO: 15 (protein)
chain: B1 chain with S2C, A14M, L53A, S57C
modifications: Description of sequence: FKBP13-AcGFP-mCherry Fusion; Construct Name: FKBP-059; FKBP13 DRD in Construct : FKBP13 (mutated to match FKBP12 active site - Q72R Q84E A117H) (DRD - L93A)
Consider B10, for which the Fold Change by setting is: under setting [1], 27.3; (tacrolimus dose response, Jurkat cells stably transduced (FIG. 10), Table 5) 31.085.

B11: FKBP-058: FKBP13 DRD Q72R, Q84E, A117H, L52A; SEQ ID NO: 14 (protein)
chain: B1 chain with S2C, L12A, A14M, S57C
modifications: Description of sequence: FKBP13-AcGFP-mCherry Fusion; Construct Name: FKBP-058; FKBP13 DRD in Construct : FKBP13 (mutated to match FKBP12 active site - Q72R Q84E A117H) (DRD - L52A)
With B11, under setting [1], the Fold Change worked out at 8.1.

B12: FKBP-063: FKBP13 DRD Q72R, Q84E, A117H, M54A, C42S; SEQ ID NO: 19 (protein)
chain: B1 chain with S57C
modifications: Description of sequence: FKBP13-AcGFP-mCherry Fusion; Construct Name: FKBP-063; FKBP13 DRD in Construct : FKBP13 (mutated to match FKBP12 active site - Q72R Q84E A117H) (DRD - M54A C42S )
In the case of B12, the “DRD function after abrogating the disulfide bonds” value (tacrolimus dose response) is “did not create a significant difference in DRD function”. Under setting [1], this molecule showed a Fold Change of 7.3.

B13: FKBP-263: based on FKBP-215 removing the M54A mutation (protein)
chain: B1 chain with S2C, P3R, A14M, E44G, V45R, S57C, H77W, K95Y
modifications: Description of sequence: Construct Name: FKBP-263; Mutation(s): Q72R Q84G A117W V85R DRD P43R K135Y
notes: based on FKBP-215 removing the M54A mutation
As for B13, the “basal AcGFP expression” value is listed as “retained the low basal AcGFP expression”. Moreover, where the note is “FIG. 49, BR1 (Biorep 1)”, the Basal turned out to be 56, the FC is given as 49.02 and the “At 10 uM” value is listed as 2745. In addition, where the note is “FIG. 49, BR2 (Biorep 2)”, the Basal turned out to be 63.3, the FC amounted to 45.75 and the “At 10 uM” value turned out to be 2896. The molecule further had an FC (tacrolimus, FIGS. 31 and 32) of 56. The “Fold Change” value under setting [2] is 56.

B14: FKBP-054: FKBP13 DRD Q72R, Q84E, A117H, D90G, L127K; SEQ ID NO: 10 (protein)
chain: B1 chain with S2C, A14M, D50G, S57C, L87K
modifications: Description of sequence: FKBP13-AcGFP-mCherry Fusion; Construct Name: FKBP-054; FKBP13 DRD in Construct : FKBP13 (mutated to match FKBP12 active site - Q72R Q84E A117H) (DRD - D90G L127K)
Under setting [1], B14 came in with a Fold Change of 0.9.
